Changes are numbered by the printed parent chain. Names may count otherwise.
What was measured:
AmyP [1] = biological target: T1, AmyP (uncultured bacterium, UniProt D9MZ14, E221Q); assay: X-ray crystal structure, […] Å; format: binding; conditions: co-crystallised with γ-CD, pH 6.0; active site, subsites -1, -2 and -3
T1 construct: gene Amy-1E; full-length residues 1-639 crystallised, 6xHis tag cut by TEV, E. coli BL21(DE3); only residues 1-496 (AmyPΔSBD) seen in crystals, SBD partly degraded

AmyP [2] = biological target: T2, AmyP (uncultured bacterium, UniProt D9MZ14); assay: X-ray crystal structure, […] Å; format: binding; conditions: co-crystallised with β-CD, pH 8.5; active site, subsites -2 and -3
T2 construct: gene Amy-1E; full-length residues 1-639 crystallised, 6xHis tag cut by TEV, E. coli BL21(DE3); only residues 1-496 (AmyPΔSBD) seen in crystals, SBD partly degraded

[3] = test system: T3, OC[C@H]1O[C@@H]2O[C@H]3[C@H](O)[C@@H](O)[C@@H](O[C@H]4[C@H](O)[C@@H](O)[C@@H](O[C@H]5[C@H](O)[C@@H](O)[C@@H](O[C@H]6[C@H](O)[C@@H](O)[C@@H](O[C@H]7[C@H](O)[C@@H](O)[C@@H](O[C@H]8[C@H](O)[C@@H](O)[C@@H](O[C@H]9[C@H](O)[C@@H](O)[C@@H](O[C@H]1[C@H](O)[C@H]2O)O[C@@H]9CO)O[C@@H]8CO)O[C@@H]7CO)O[C@@H]6CO)O[C@@H]5CO)O[C@@H]4CO)O[C@@H]3CO; assay: reducing sugar assay (copper-bicinchoninate), Michaelis-Menten fit; format: biochemical, uncultured bacterium; conditions: 40 °C, pH 6.5, 20 mM HEPES, 150 mM NaCl, 10 mM CaCl2
T3 construct: SBD-truncated catalytic domain, residues 1-496, N-terminal 6xHis (TEV site)
Description: (§1) reducing sugar assay (copper-bicinchoninate), Michaelis-Menten fit on AmyPΔSBD

[4] = substrate: OC[C@H]1O[C@@H]2O[C@H]3[C@H](O)[C@@H](O)[C@@H](O[C@H]4[C@H](O)[C@@H](O)[C@@H](O[C@H]5[C@H](O)[C@@H](O)[C@@H](O[C@H]6[C@H](O)[C@@H](O)[C@@H](O[C@H]7[C@H](O)[C@@H](O)[C@@H](O[C@H]8[C@H](O)[C@@H](O)[C@@H](O[C@H]9[C@H](O)[C@@H](O)[C@@H](O[C@H]1[C@H](O)[C@H]2O)O[C@@H]9CO)O[C@@H]8CO)O[C@@H]7CO)O[C@@H]6CO)O[C@@H]5CO)O[C@@H]4CO)O[C@@H]3CO; assay: as above; format: biochemical, uncultured bacterium; conditions: 40 °C, pH 6.5, 20 mM HEPES, 150 mM NaCl, 10 mM CaCl2
Description: as §1

OC[C@H]1O[C@H](O[C@H]2[C@H](O)[C@@H](O)[C@@H](O[C@H]3[C@H](O)[C@@H](O)C(O)O[C@@H]3CO)O[C@@H]2CO)[C@H](O)[C@@H](O)[C@@H]1O (some centres unmarked) [maltotriose]
X-ray crystal structure, 2.55 Å (AmyP [1]): electron density representing a maltotriose molecule bound to the active site

OC[C@H]1O[C@H](O[C@H]2[C@H](O)[C@@H](O)C(O)O[C@@H]2CO)[C@H](O)[C@@H](O)[C@@H]1O (some centres unmarked) [maltose]
X-ray crystal structure, 1.95 Å (AmyP [2]): electron density representing a maltose molecule at subsites -2 and -3

AmyPΔSBD (uncultured bacterium; N148A)
Km [3]: 200 ± 30 µM
kcat [3]: 22.59 ± 0.007 s⁻¹
kcat/Km [3]: 113000 M⁻¹ s⁻¹

AmyPΔSBD (uncultured bacterium; K131A)
Km [3]: 1290 ± 130 µM
kcat [3]: 7.47 ± 0.004 s⁻¹
kcat/Km [3]: 5800 M⁻¹ s⁻¹

B1: AmyPΔSBD (uncultured bacterium) (protein)
chain: MCDSALTAQANDLRIYQVMVESFVNGDDAIGHGTGYGTSHHKGDLQGIIDSLDYIESLGMNAIWLTPIFDSIPVEGQDHWADRLDATGYFTSNYFAVDPRFGTMEQAKELVEKAHEKGLYVFFDGVFGHHKDNVVPSPEGRLPVGENNPVSYPESLAFYQEVATFWIEELKIDGWRLDQAYQVPTEAWTAIRASVDEASKSVTYVNSEGEAVNPLGYMVAEIWNNENYIKETGYGAEGEPALCSAFDFPVRYRVVETFAANENGIGNKGGKWLDEGMNLHRLYPSHAQPNLMLGNHDLVRFGDLLQRGNIASPEQAEYWERHKAALSFQAAYSGPITLYYGEEIGDELEGYAQKVEQDCAVQGLCDDHVARTSANIDGLTVNLNEKQRDLKQYVSQLMTLRAAHPALSRGERTNIVANETVYIDHKQADDDALIYMVSTTADQDTVELKASDIASDGQLVDLLTGKVHSAINGEYQISLAPFEAKFLLIETPSASG
notes: SBD-truncated catalytic domain, residues 1-496, N-terminal 6xHis (TEV site)
Km [4]: 120 ± 5 µM
kcat [4]: 39.58 ± 0.004 s⁻¹
kcat/Km [4]: 323000 M⁻¹ s⁻¹

B2: AmyPΔSBD (uncultured bacterium; Y351A) (protein)
chain: B1 chain with Y351A
notes: as for B1
Km [4]: 2110 ± 90 µM
kcat [4]: 25.02 ± 0.006 s⁻¹
kcat/Km [4]: 11900 M⁻¹ s⁻¹

B3: AmyPΔSBD (uncultured bacterium; N148Y) (protein)
chain: B1 chain with N148Y
notes: as for B1
Km [4]: 100 ± 9 µM
kcat [4]: 26.11 ± 0.01 s⁻¹
kcat/Km [4]: 274000 M⁻¹ s⁻¹

Source: publication PMC5355875, “Crystal structure of a raw-starch-degrading bacterial α-amylase belonging to subfamily 37 of the glycoside hydrolase family GH13” (Scientific Reports, 2017)
